Molecular target: pre-hairpin intermediate of gp41 (HIV-1 Env on effector cells) (HIV-1) (UniProt P03377)
Test: cell-based or functional assay

## N36 peptide
  IC50, inhibition of HIV Env-mediated cell fusion (vaccinia virus-based reporter gene assay): 16 µM

Source: US20060281673A1, “Novel peptide inhibitor of hiv fusion that disrupts the internal trimeric coiled-coil of gp41” (priority 2003, published 2006)
